Laboratory results: patent US12385914B2, “CRY1-clock-BMAL1 complex-disrupting agents and methods of identifying and using same” (The Regents of the University of California, priority 2017, dated 2025)
“Also recorded” adds a separate entry of the source.

Target: T1, CRY1-CLOCK PAS-B domain complex (Mus musculus, UniProt P97784)
T1 construct: His6 (N, cleaved yes); made in house; host or cells: CRY1 PHR: Sf9 insect cells (baculovirus)
T1 sequence (P97784 with tags, fused parts or gaps): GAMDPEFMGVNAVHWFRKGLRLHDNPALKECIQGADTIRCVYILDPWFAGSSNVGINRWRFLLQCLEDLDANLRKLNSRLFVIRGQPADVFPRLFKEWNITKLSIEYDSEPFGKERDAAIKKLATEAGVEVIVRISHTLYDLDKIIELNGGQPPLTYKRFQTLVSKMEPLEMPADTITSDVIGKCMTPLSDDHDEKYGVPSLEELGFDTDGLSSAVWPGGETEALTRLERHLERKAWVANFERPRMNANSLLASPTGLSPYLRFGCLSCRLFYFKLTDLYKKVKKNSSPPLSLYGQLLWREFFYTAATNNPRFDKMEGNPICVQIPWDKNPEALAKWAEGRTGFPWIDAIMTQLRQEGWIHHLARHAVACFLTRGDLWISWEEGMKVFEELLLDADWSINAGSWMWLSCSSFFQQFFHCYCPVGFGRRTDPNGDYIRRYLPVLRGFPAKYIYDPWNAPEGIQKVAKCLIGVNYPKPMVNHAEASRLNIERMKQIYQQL
Assay: Fluorescence polarization (FP)-based displacement assay of labeled CLOCK PAS-B from CRY1 PHR
Type: binding
Conditions: 100 μM peptide; 20 nM CLOCK PAS-B probe and 4 μM CRY1 PHR; triplicate wells; FIG. 13
Method: Described in this example is a fluorescence polarization (FP)-based displacement assay developed by the inventors for identifying agents that disrupt the CRY1-CLOCK-BMAL1 ternary complex.
CRY1 PHR and CLOCK PAS-B domain fluorescently labeled at its N-terminus were prepared as described in the preceding examples. Equipment/Reagents included the following: Greiner 384 Well Assay Plate, 120 μl rounded square wells, flat bottom, black polystyrene; Envision 2103 Multilabel Reader (2103-0020); Fluorescence Polarization (FP) assay buffer (50 mM Bis-Tris Propane, 100 mM NaCl, 2 mM TCEP, 0.05% Tween-20, 0.5% DMSO, pH 7.5); and GraphPad Prism (version 6 or higher). All assay components were buffer exchanged into FP buffer.
A stock assay mixture of 8 μM CRY1 and 40 nM labeled CLOCK PAS-B was incubated at 4° C. overnight. Equal volumes (half of final well volume) stock assay mixture was dispensed into wells of the Greiner 384 Well Assay Plate, reserving wells for appropriate controls. […] Fluorescence polarization was measured using an Envision 2013 plate reader.
A labeled CLOCK PAS-B-only control of 20 nM was used to determine the G-factor for FP. The G-factor should be variable “G” such that Fluorescence polarization (FP)=1000*(S−G*P)/(S+G*P). […] G=(S/P)*(1−27/1000)/(1+27/1000), with S being the parallel fluorescence intensity, and P being the perpendicular fluorescence intensity. […]

peptide encoded by CRY1 Exon 11: 23 residue peptide encoded by human CRY1 Exon 11 (residues 530-552), sequence CSQGSG1LHYAHGDSQQTHLLK; positive control inhibitor (CSQGSGILHYAHGDSQQTHLLK; listed as Homo sapiens)
displacement of CLOCK PAS-B from the CRY1 PHR: displaced CLOCK PAS-B from the CRY1 PHR; also recorded: able to displace CLOCK PAS-B from the CRY1 PHR
